Results on 1 molecule are retold here after article PMC2709796.

This experiment concerns the target human LRP purified from placenta (human). The experiment is described as follows: SPR.

B1: hexa-His-tagged fragment of sorLA including the YWTD-repeated β-propeller, the single EGF-domain and the 11 CR-domains (residues 728-1526) (domain or fragment)
chain: YRKISGDTCSGGDVEARLEGELVPCPLAEENEFILYAVRKSIYRYDLASGATEQLPLTGLRAAVALDFDYEHNCLYWSDLALDVIQRLCLNGSTGQEVIINSGLETVEALAFEPLSQLLYWVDAGFKKIEVANPDGDFRLTIVNSSVLDRPRALVLVPQEGVMFWTDWGDLKPGIYRSNMDGSAAYHLVSEDVKWPNGISVDDQWIYWTDAYLECIERITFSGQQRSVILDNLPHPYAIAVFKNEIYWDDWSQLSIFRASKYSGSQMEILANQLTGLMDMKIFYKGKNTGSNACVPRPCSLLCLPKANNSRSCRCPEDVSSSVLPSGDLMCDCPQGYQLKNNTCVKQENTCLRNQYRCSNGNCINSIWWCDFDNDCGDMSDERNCPTTICDLDTQFRCQESGTCIPLSYKCDLEDDCGDNSDESHCEMHQCRSDEYNCSSGMCIRSSWVCDGDNDCRDWSDEANCTAIYHTCEASNFQCRNGHCIPQRWACDGDTDCQDGSDEDPVNCEKKCNGFRCPNGTCIPSSKHCDGLRDCSDGSDEQHCEPLCTHFMDFVCKNRQQCLFHSMVCDGIIQCRDGSDEDAAFAGCSQDPEFHKVCDEFGFQCQNGVCISLIWKCDGMDDCGDYSDEANCENPTEAPNCSRYFQFRCENGHCIPNRWKCDRENDCGDWSDEKDCGDSHILPFSTPGPSTCLPNYYRCSSGTCVMDTWVCDGYRDCADGSDEEACPLLANVTAASTPTQLGRCDRFEFECHQPKTCIPNWKRCDGHQDCQDGRDEANCPTHSTLTCMSREFQCEDGEA
Usually Kd stands for the constant that tells how readily two partners part at equilibrium. A higher Kd goes with a looser complex. Broadly, the koff is the rate constant with which the complex falls apart. Higher therefore signals fast dissociation. As usually defined, the kon is the second-order rate constant of association. A high value points to fast association. The molecule B1 yielded a Kd of 36.5 nM, a koff of 0.00015 s⁻¹ and a kon of 4110 M⁻¹ s⁻¹.
